Data published in article PMC10853069.

Columns and labels:
[1] = molecular target: Taxol-stabilized microtubules polymerized from purified porcine tubulin (porcine) (UniProt P02550); assay: cross-linking
[2] = molecular target: Taxol-stabilized microtubules polymerized from purified porcine tubulin (porcine) (UniProt P02550); assay: co-sedimentation

MBP-MEI-2 1–90 K77A-K78A (from UniProt O44740 1-90) (domain or fragment)
MEI-2*tubulin crosslinked band, percent of the WT fragment [1]: 84%

MBP-MEI-2 1–90 K77D-K78D (from UniProt O44740 1-90) (domain or fragment)
MEI-2*tubulin crosslinked band, percent of the WT fragment [1]: 87%

MBP-MEI-2 full length 6KA (K8A-K9A K77A-K78A K274A-K275A) (from UniProt O44740 1-280) (natural protein)
MEI-2*tubulin crosslinked band, percent of WT [1]: 53%
Kd [2]: 3.68 µM

MBP-MEI-2 full length 6KD (K8D-K9D K77D-K78D K274D-K275D) (from UniProt O44740 1-280) (natural protein)
MEI-2*tubulin crosslinked band, percent of WT [1]: 6%
Kd [2]: 6.15 µM
